Patent publication US10005846 (LIFEARC, dated 2018)

Tests used:
[1] = biological target: T1, human transglutaminase type 2 (TG2) (human, UniProt P21980 1-687); assay: cell-based or functional assay
T1 sequence: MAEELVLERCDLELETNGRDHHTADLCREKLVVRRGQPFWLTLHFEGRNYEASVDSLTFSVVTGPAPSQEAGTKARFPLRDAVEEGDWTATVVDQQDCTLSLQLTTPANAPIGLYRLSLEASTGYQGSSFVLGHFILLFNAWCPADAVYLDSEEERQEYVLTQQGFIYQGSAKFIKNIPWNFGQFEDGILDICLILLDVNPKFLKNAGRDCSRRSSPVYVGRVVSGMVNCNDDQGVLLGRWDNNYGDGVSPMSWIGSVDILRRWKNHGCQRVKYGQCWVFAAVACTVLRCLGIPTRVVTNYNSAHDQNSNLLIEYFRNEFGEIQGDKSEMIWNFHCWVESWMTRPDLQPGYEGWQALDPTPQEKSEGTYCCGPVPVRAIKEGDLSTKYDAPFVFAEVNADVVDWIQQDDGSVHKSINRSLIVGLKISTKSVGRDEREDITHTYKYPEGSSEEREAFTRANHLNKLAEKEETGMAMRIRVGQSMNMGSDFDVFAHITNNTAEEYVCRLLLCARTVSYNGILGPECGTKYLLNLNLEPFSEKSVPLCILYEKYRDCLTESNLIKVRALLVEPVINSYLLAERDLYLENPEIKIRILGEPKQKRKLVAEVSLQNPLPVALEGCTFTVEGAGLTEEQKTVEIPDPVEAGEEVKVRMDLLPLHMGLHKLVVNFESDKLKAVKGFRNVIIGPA

[2] = biological target: T2, cynomolgus monkey TG2 (cynomolgus monkey, UniProt A0A2K5VXI8 1-687); assay: cell-based or functional assay
T2 sequence: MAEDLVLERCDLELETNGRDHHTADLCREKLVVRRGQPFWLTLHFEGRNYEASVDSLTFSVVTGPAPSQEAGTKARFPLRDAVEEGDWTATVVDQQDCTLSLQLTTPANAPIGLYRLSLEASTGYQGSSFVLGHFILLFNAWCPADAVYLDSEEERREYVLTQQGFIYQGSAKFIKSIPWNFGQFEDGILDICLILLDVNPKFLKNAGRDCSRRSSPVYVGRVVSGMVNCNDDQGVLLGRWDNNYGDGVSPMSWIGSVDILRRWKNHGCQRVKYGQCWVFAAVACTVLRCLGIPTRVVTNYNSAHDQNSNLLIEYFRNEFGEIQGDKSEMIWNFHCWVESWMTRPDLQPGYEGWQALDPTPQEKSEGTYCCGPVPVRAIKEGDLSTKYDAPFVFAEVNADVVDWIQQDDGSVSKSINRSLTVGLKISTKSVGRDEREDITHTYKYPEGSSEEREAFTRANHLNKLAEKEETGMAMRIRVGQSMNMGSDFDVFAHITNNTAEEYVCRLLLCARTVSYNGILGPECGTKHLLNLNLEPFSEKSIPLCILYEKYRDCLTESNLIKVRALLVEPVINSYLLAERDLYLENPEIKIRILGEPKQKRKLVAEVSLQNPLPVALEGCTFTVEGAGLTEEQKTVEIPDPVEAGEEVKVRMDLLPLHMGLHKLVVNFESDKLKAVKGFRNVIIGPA

[3] = biological target: T1, human transglutaminase type 2 (TG2); assay: ELISA on immobilised human TG2; r2 0.9985; EC50 95% confidence range 0.3927 to 0.4971 [panel A]
Procedure: (§1) Antibody binding to human and cynomolgus monkey TG2 was determined in an ELISA assay. Clear polystyrene "Maxisorp" 96-well plates (Nunc) were coated with 50 ng purified human or cynomogulus monkey TG2 in 50 µl 0.05 M carbonate-bicarbonate buffer pH 9.6 at 4° C. overnight. Control wells were coated with 50 µl 100 µg/ml bovine serum albumin (BSA). Plates were washed 3× with 300 µl phosphate-buffered saline pH7.4 (PBS) containing 0.1% Tween 20 (PBST) and blocked with 300 µl 3% w/v Marvel skimmed milk in PBS for 1 hour at room temperature. After 3× wash with PBST, 50 µl protein-A purified chimeric or humanised anti-TG2 antibodies or human IgG1 kappa […] control antibody or CUB7402 (Abcam) were serially diluted 4-fold from a top concentration of 50 nM in PBS, and added to the plate in duplicate. […] After 3× washes with PBST, the plates were developed with 50 µl TMB substrate (Sigma) for 5 min at room temperature before stopping the reaction with 25 µl 0.5M H2SO4 and reading absorbance at 450 nm in a microtiter plate reader (BioTek EL808). Dose response curves were analysed and EC50 values and other statistical parameters determined using a 4-parameter logistical fit of the data (GraphPad Prism).

[4] = biological target: T2, cynomolgus monkey TG2; assay: ELISA on immobilised cynomolgus monkey TG2; r2 0.9993; EC50 95% confidence range 0.3887 to 0.4489 [panel A]
Procedure: as §1

[5] = biological target: T1, human transglutaminase type 2 (TG2); assay: SPR (Biacore T200), antibody captured on anti-human IgG1 Fc chip, TG2 injected; calcium condition not marked in the row
Procedure: (§2) Recombinant cynomolgus monkey TG2 was obtained from Trenzyme. Surface plasmon resonance (SPR) was measured on a Biacore T200 instrument (GE Healthcare). CM5 chips (GE Healthcare cat. no.: BR-1006-68) were coated with monoclonal mouse anti-human IgG1 (Fc) (MAH) antibody (GE Healthcare cat. no.: BR-1008-39) by amine-coupling as described in the manufacturers instructions. HBS-EP+ buffer (0.01 M HEPES, 0.15 M NaCl, 3 mM EDTA, 0.05% v/v Surfactant P20) and HBS-P+ buffer (0.01 M HEPES, 0.15 M NaCl, 0.05% Surfactant P20) were purchased from GE Healthcare as 10× stocks (cat. nos.: BR-1006-69 and BR-1006-71). Calcium Chloride solution was obtained from Sigma Aldrich (cat. no.:21115).
(§3) The method employed to determine the affinity of the anti-TG2 antibodies involved the capture of the chimeric or humanised antibodies on a MAH coated CM5 chip, followed by the injection of a series of TG2 samples in running buffer. The running buffer was 1×HBS-P+ containing 1 mM CaCl_2, or 1×HBS-EP+ for calcium-free experiments. Antibody capture was carried out for a contact time of 120 seconds at a flow rate of 10 μl/min resulting in the capture of approximately 40-80 RU. TG2 was injected over the immobilised antibody at concentrations ranging from 25 nM to 400 nM with a contact time up to 600 seconds at a flow rate of 30 μl/min. Dissociation of TG2 was typically measured for up to 5400 seconds (1.5 hours). Regeneration of the chip was then performed using 3 M MgCl_2, for a contact time of 60 seconds at a flow rate of […], followed by a 300 s stabilisation period before the next sample. For each of human and cynomolgus monkey TG2, at least 5 injections at a variety of concentrations were performed in at least two separate experiments.
(§4) Kinetic data were exported from the Biacore T200 Evaluation Software and analysed using GraphPad Prism, where the association phases and dissociation phases were analysed separately using a one phase association model and one-phase exponential decay model respectively. Association rates ($kon$) were calculated for each curve individually, and dissociation rates ($koff$) values from the long dissociation phase data collected. Where $koff$ values were calculated to be $<1\times10^-5$ s^-1, values were set at 1×10^-5 for analysis, as rates slower than this could not be estimated accurately.

[6] = biological target: T2, cynomolgus monkey TG2; assay: as above
Procedure: as §2, §3, §4

[7] = biological target: T1, human transglutaminase type 2 (TG2); assay: cell-based or functional assay; remark: listed apart in the source
[8] = biological target: T1, human transglutaminase type 2 (TG2); assay: cell-based or functional assay; remark: listed apart in the source
[9] = biological target: T1, human transglutaminase type 2 (TG2); assay: anti-huTG2 ELISA of HEK293F supernatants
Procedure: Supernatants from HEK293F cells co-transfected with different combinations of humanised AB1 light chains and AB1 heavy chain vectors were assayed in an anti-human IgG ELISA to determine concentration and in an anti huTG2 ELISA. Each supernatant was assayed in triplicate and $IC50$'s determined.
HEK 293F cells were co-transfected with combinations of different humanised light chain vectors in association with different humanised heavy chain vectors. Recombinant human TG2 was used to measure antibody binding by ELISA. […] A similar approach was used to identify optimal pairs of humanized BB7 heavy and light chains, and humanised DC1 heavy and light chains.

B1: cDC001 chimeric antibody (murine DC1 variable regions) (antibody, human IgG1, V domains shown)
VH: EVQLVESGGGLVKPGGSLKLSCAASGFTLSTHAMSWVRQTPEKRLEWVATISSGGRSTYYPDSVKGRFTISRDNVKNTLYLQLSSLRSEDTAVYFCARLISTYWGQGTTLTVSS
VL: DITMTQSPSSIYASLGERVTITCKASQDINSYLTWFQQKPGKSPKILIYLVNRLVDGVPSRFSGSGSGQDYALTISSLEYEDMGIYYCLQYDDFPYTFGGGTKLEIK
notes: also called Chimeric DC1
In the case of B1, the “IC50 of enzymatic inhibition, dansylated lysine incorporation into N,N-dimethylated casein [continued), panel C]” value [1] is reported as 0.851 nM, the “IC50 of enzymatic inhibition, dansylated lysine incorporation into N,N-dimethylated casein [panel A]” value [2] is reported as 5.86 nM and the EC50 [3] is reported as 0.442 nM. For the same binder, the EC50 [4] was 0.418 nM, the Kd [5] was < 0.03 nM and the koff [5] was < 1e-05 s⁻¹. The kon [5] was 320000 M⁻¹ s⁻¹, the Kd [6] was < 0.024 nM and the koff [6] was < 1e-05 s⁻¹. For the same binder, the kon [6] was 420000 M⁻¹ s⁻¹.

B2: hAB005 (hAB001AJ) humanised AB1 antibody (antibody, V domains shown)
VH: EVQLLESGGGLVQPGGSLRLSCAASGFTFSSSAMSWVRQAPGKGLEWVSTISVGGGKTYYPDSVKGRFTISRDNSKNTLYLQMNSLRAEDTAVYYCAKLISLYWGQGTLVTVSS
VL: DIQMTQSPSSLSASVGDRVTITCKASQDINSYLTWFQQKPGKAPKSLIYRTNRLFDGVPSRFSGSGSGTDFFLTISSLQPEDFATYYCLQYDDFPYTFGQGTKVEIK
notes: captured by anti-human IgG1 (Fc); also called Heavy Chain version RHA with Light Chain version RKJ
With B2 the “IC50, extracellular TG activity of HK-2 cells, biotin cadaverine incorporation into fibronectin” value [7] was 71.8 nM, the “IC50 of enzymatic inhibition, dansylated lysine incorporation into N,N-dimethylated casein; 2 batches shown [continued), panel C]” value [8] was 6.87 nM and the Kd [5] was < 0.05 nM. For the same binder, the koff [5] was < 1e-05 s⁻¹, the kon [5] was 190000 M⁻¹ s⁻¹ and the Kd [6] was 0.24 nM. The koff [6] was 3.4e-05 s⁻¹ and the kon [6] was 140000 M⁻¹ s⁻¹.

B3: VHc/RKE (antibody, V domains shown)
VH: EVQLVESGGGLVKPGGSLKLSCAASGFTLSSSAMSWVRQTPDRRLEWVATISVGGGKTYYPDSVKGRFTISRDNAKNTLYLQMNSLRSEDTAMYYCAKLISLYWGQGTTLTVSS
VL: EIVLTQSPSSLSASVGDRVTITCKASQDINSYLTWYQQKPGKAPKLLIYRTNRLFDGVPSRFSGSGSGTDFFFTISSLQPEDFGTYYCLQYDDFPYTFGGGTKLEIK
notes: also called hAB001HcE
B3: binds [9].

B4: RHA/VKc (antibody, V domains shown)
VH: EVQLLESGGGLVQPGGSLRLSCAASGFTFSSSAMSWVRQAPGKGLEWVSTISVGGGKTYYPDSVKGRFTISRDNSKNTLYLQMNSLRAEDTAVYYCAKLISLYWGQGTLVTVSS
VL: EIVLTQSPSSMYASLGERVTITCKASQDINSYLTWFQQKPGKSPKTLIYRTNRLFDGVPSRFSGSGSGQDFFLTISSLEYEDMGIYYCLQYDDFPYTFGGGTKLEIK
notes: also called hAB001AKc
B4: binds [9].

B5: VHc/RKJ (antibody, V domains shown)
VH: EVQLVESGGGLVKPGGSLKLSCAASGFTLSSSAMSWVRQTPDRRLEWVATISVGGGKTYYPDSVKGRFTISRDNAKNTLYLQMNSLRSEDTAMYYCAKLISLYWGQGTTLTVSS
VL: DIQMTQSPSSLSASVGDRVTITCKASQDINSYLTWFQQKPGKAPKSLIYRTNRLFDGVPSRFSGSGSGTDFFLTISSLQPEDFATYYCLQYDDFPYTFGQGTKVEIK
notes: also called hAB001HcJ
B5: binds [9].

B6: RHA/VKc1 (antibody, V domains shown)
VH: EVQLLESGGGLVQPGGSLRLSCAASGFTFSSSAMSWVRQAPGKGLEWVSTISVGGGKTYYPDSVKGRFTISRDNSKNTLYLQMNSLRAEDTAVYYCAKLISLYWGQGTLVTVSS
VL: DIQMTQSPSSMYASLGERVTITCKASQDINSYLTWFQQKPGKSPKTLIYRTNRLFDGVPSRFSGSGSGQDFFLTISSLEYEDMGIYYCLQYDDFPYTFGGGTKLEIK
notes: also called hAB001AKc1
B6: binds [9].
